We go through one protein from publication PMC3397958, “Molecular Characterization of NAD^+-Dependent DNA Ligase from Wolbachia Endosymbiont of Lymphatic Filarial Parasite Brugia malayi” (PLoS ONE, 2012).

Substrate in this data set: NC(=O)c1ccc[n+]([C@@H]2O[C@H](COP(=O)(O)OP(=O)(O)OC[C@H]3O[C@@H](n4cnc5c(N)ncnc54)[C@H](O)[C@@H]3O)[C@@H](O)[C@H]2O)c1
Description: nick closing activity; fluorescein-labelled oligonucleotide ligated to biotinylated oligonucleotide on streptavidin plate. The conditions noted are these: nicked DNA duplex substrate, 20 mM Tris-HCl pH 8.0, 10 mM MgCl2, 10 mM (NH4)2SO4, 1.2 mM EDTA, 25 °C, 5 nM enzyme, NAD+ 0-30 µM, varied: cofactor. It is filed as biochemical, Wolbachia endosymbiont of Brugia malayi.

B1: wBm-LigA (NAD+-dependent DNA ligase of Wolbachia endosymbiont of Brugia malayi) (Wolbachia endosymbiont strain TRS of Brugia malayi) (protein)
chain: MADLEKMIEEFTKLRDQISYHDVLYHQKSKPEIADAEYDKLKQKLVEMEGQLPGACVTQDGVGAAPDEKFSKIKHREPMLSLENAYDEQGVERFLSRIKRFLIEEEIEVFCEPKIDGLSFSAVYEDGRFVKAATRGDGFIGEDVTRNVATIKGFPRFLQDVQDRLEVRGEIYINNSDFLKLNKDNEFANPRNAAAGSLKQLDVSITANRPLKYFAYSLIGGKEKSQSEVLNRLESLGFCVNEHRSLTNNLSGMLEFYNKVYNCRYSLDYDIDGIVYKVNDLILQSRLGSTHKAPRSALAYKFSAVYAKTKLNKIFIQVGRTGVLTPVADLIPVNIGGVLVSRANLHNQDEIKRKDVREGDIVTIKRAGDVIPQIVRVDKGSRHADAPGFVFPEICPECGGKVQAEGAAIRCSEELTCKAQIIGKLSHFVSKGAFDIFGLGEKQIKFFYDLGLIKQIPDIFNLEERLNEFSLKEQPDWGERSIANLLNAIQNRRVITLDRFIFSLGIRFIGQVAAELLANYYVSYNNWYNSMIKLLSNDAEVGVGGVEKKIAKSFSDELVGIDGIGEKVAESLKSFFSKEHNIKMLKDLTDYLQILSVNSNSSNSVLNNKVIVFTGKLLTMSRGEAKVRAKALGAKVSSNLSAKIDYLVAGEKPGNKYKKAVELGVGILNEDQWYRMINSEVSE
notes: full length, 683 residues (ORF 2052 bp), pET28a(+), His6 tags at N and C terminus kept, expressed in E. coli Rosetta, Ni-NTA purified, ~75 kDa
Usually Km stands for the concentration of substrate that gives half-maximal velocity. Consider B1, for which the Km was 4.8 µM.
